The values that follow come from patent US20150368299A1.

Experiment [1] has as its target Aβ(1-40) monomer in 0.1% NH4OH (human). As to the kind of experiment: dot blot with densitometry; Aβ form dotted on nitrocellulose in serial dilution, antibody 0.2 µg/ml; higher value = weaker recognition.
Experiment [2] addresses Aβ(1-40) monomer in 0.1% NaOH (human). The experiment is described as above.
The target of the next experiment is Aβ(1-42) fibril (human) (UniProt P05067). The experiment is described as above.
In experiment [3] the target is Aβ(1-42) globulomer (human) (UniProt P05067). Described as above.
Experiment [4] deals with Aβ(1-42) monomer in 0.1% NH4OH (human). Described as above.
For experiment [5], the target named is Aβ(1-42) monomer in 0.1% NaOH (human). The experiment is described as above.
The target of experiment [6] is platelet factor 4 (PF-4) in Cynomolgus monkey plasma (cynomolgus monkey (Macaca fascicularis)). As to the kind of experiment: sandwich ELISA with cynomolgus plasma; AUC of the reference anti-HPF4 antibody over AUC of this antibody. On the technique in general: In an ELISA, binding on a coated surface is turned into a signal by an enzyme label.
Experiment [7] concerns the target human platelet factor 4 (HPF4) in human plasma spiked with human PF4 (human) (UniProt P02776). As to the kind of experiment: sandwich ELISA with HPF4-spiked human plasma; AUC of the reference anti-HPF4 antibody over AUC of this antibody.
The target of experiment [8] is platelet factor 4 (PF-4) in Cynomolgus monkey plasma (cynomolgus monkey (Macaca fascicularis)). As to the kind of experiment: aligned sandwich ELISA with cynomolgus plasma; AUC of the reference anti-HPF4 antibody over AUC of this antibody.
Experiment [9] concerns the target human platelet factor 4 (HPF4) in human plasma spiked with human PF4 (human) (UniProt P02776). As to the kind of experiment: aligned sandwich ELISA with HPF4-spiked human plasma; AUC of the reference anti-HPF4 antibody over AUC of this antibody.

Sequence of platelet factor 4 (PF-4) in Cynomolgus monkey plasma (cynomolgus monkey (Macaca fascicularis)) (chain, as listed by the source): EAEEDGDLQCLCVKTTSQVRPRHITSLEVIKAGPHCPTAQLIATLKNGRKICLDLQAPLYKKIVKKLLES
Sequence of human platelet factor 4 (HPF4) in human plasma spiked with human PF4 (human) (P02776 32-101): as the sequence (chain, as listed by the source) above, with V64I counted along it
Sequence of Aβ(1-42) monomer in 0.1% NaOH (human) (peptide, as listed by the source): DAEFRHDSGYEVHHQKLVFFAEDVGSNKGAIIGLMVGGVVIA
Sequence of Aβ(1-40) monomer in 0.1% NH4OH (human) (peptide, as listed by the source): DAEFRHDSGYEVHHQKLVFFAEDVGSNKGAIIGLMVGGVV

Consider “Anti-Aβ monoclonal antibody clone 6E10 (Covance cat. no. SIG-39320)”, for which the dot blot relation of recognition of Aβ(20-42) globulomer to recognition of this Aβ form in experiment [1] came to 3; in [2], 20; with Aβ(1-42) fibril (human) it was 29; in [3], 0.09; in [4], 10; in experiment [5] it was 10.
Regarding “Anti-HPF4 monoclonal antibody (Abcam Cat. No. ab49735)”, the Ratio HPF4/aAβ antibody (PF4 discrimination factor) in experiment [6], in [7], in experiment [8] and in experiment [9] was 1 each time.
Consider Monoclonal antibody clone mIgG2a, for which the Ratio HPF4/aAβ antibody (PF4 discrimination factor) was 517 in [6], 331 in [7], 325 in experiment [8] and 118 in [9].
